Data reported in EP1870419A2, “Modulators of beta-amyloid peptide aggregation comprising D-amino acids” (Praecis Pharmaceuticals Incorporated, priority 1999, dated 2000).
Blank lines part the entries; values can stand above or below the substance they belong to.

Target: Aβ1-40 peptide (natural β-amyloid peptide, β-AP1-40)
Assay: cell-based or functional assay

Chain of Aβ1-40 peptide (natural β-amyloid peptide, β-AP1-40) (peptide, as listed by the source limits assumed, form in doubt): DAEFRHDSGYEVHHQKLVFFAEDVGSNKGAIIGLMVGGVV

Nucleation assay Δlag, 0.3 µM compound (note *) (fold of control lag time): 3
Nucleation assay Δlag, 0.6 µM compound (note #) (fold of control lag time): 1.5
Nucleation assay Δlag, 1 µM compound (note *) (fold of control lag time): 4
Nucleation assay Δlag, 1.25 µM compound (note #) (fold of control lag time): 1.5
Nucleation assay Δlag, 2.5 µM compound (note #) (fold of control lag time): 1.5
Nucleation assay Δlag, 3 µM compound (note *) (fold of control lag time): 4
Substance: PPI 1007: TFA·N,N-dimethyl-(lvffl)-NH2 (peptide)

Nucleation assay Δlag, 0.6 µM compound (note #) (fold of control lag time): 2
Nucleation assay Δlag, 1.25 µM compound (note #) (fold of control lag time): > 3
Nucleation assay Δlag, 2.5 µM compound (note #) (fold of control lag time): 2
Substance: PPI 1013: TFA·H-(Glvffl)-NH2 (peptide)

Nucleation assay Δlag, 1.25 µM compound (fold of control lag time): 1
Nucleation assay Δlag, 2.5 µM compound (fold of control lag time): 1
Nucleation assay Δlag, 5 µM compound (fold of control lag time): 3
Substance: PPI 992: TFA·H-(lvffa)-isopropylamide (peptide)

Nucleation assay Δlag, 1.25 µM compound (fold of control lag time): 3
Nucleation assay Δlag, 2.5 µM compound (fold of control lag time): > 5
Nucleation assay Δlag, 5 µM compound (fold of control lag time): > 5
Substance: PPI 969: TFA·N-ethyl-(Gaffvl)-NH2 (peptide)

Nucleation assay data (Δlag), 0.3 µM compound (fold of control lag time): 1
Nucleation assay data (Δlag), 1 µM compound (fold of control lag time): 2
Nucleation assay data (Δlag), 3 µM compound (fold of control lag time): > 5
Substance: PPI-1318: TFA·H-(lf-D-Cha-vl)-NH2 (peptide)

Nucleation assay data (Δlag), 0.6 µM compound (note *) (fold of control lag time): 2
Nucleation assay data (Δlag), 1.25 µM compound (note *) (fold of control lag time): > 2.5
Nucleation assay data (Δlag), 2.5 µM compound (note *) (fold of control lag time): > 2.5
Substance: PPI 1125: 2 TFA·H-lvf-NH-NH-fvl-H (peptide)

Nucleation assay data (Δlag), 0.6 µM compound (note *) (fold of control lag time): 2
Nucleation assay data (Δlag), 1.25 µM compound (note *) (fold of control lag time): > 2.5
Nucleation assay data (Δlag), 2.5 µM compound (note *) (fold of control lag time): > 2.5
Substance: PPI-1019: TFA•N-methyl-(lvffl)-NH2 (peptide)

Nucleation assay data (Δlag), 0.3 µM compound (fold of control lag time): 1
Nucleation assay data (Δlag), 1 µM compound (fold of control lag time): 3
Nucleation assay data (Δlag), 3 µM compound (fold of control lag time): > 5
Substance: PPI 1320: TFA·H-(lf-[F5]f-vl)-NH2 (peptide)
